Experimental findings from US20140066321A1 (PANGU BIOPHARMA, published 2014) are described below.

Data set [1] deals with the molecule itself. As to the kind of experiment: X-ray crystal structure at 2.4 Å (self-association, homodimer). The protocol:
To set up a […], 1 μl of protein sample was mixed with 1 μl of crystallization solution with 0.2 M ammonium citrate. […] Before diffraction experiments, crystals were soaked in crystallization solution containing […] for cryoprotection. […] Specifically, crystals were soaked in crystallization solution containing 10-20% glycerol for 5-10 mins. The diffraction data were collected at the Shanghai Synchrotron Radiation Facility and were processed and scaled using HKL2000.
The phase was improved by density modifications with RESOLVE. The initial model was built in COOT. […] The models were refined in Refmac5 and PHENIX. […] All structure figures were prepared by PyMOL

Data set [2] concerns the molecule itself. As to the kind of experiment: size exclusion chromatography (self-association, homodimer). The protocol:
The cDNA encoding native human cytoplasmic HRS and the splice variant HRSΔCD were cloned into a modified pET32 vector and fused to the N-terminal thioredoxin-His₆-tags. The fusion proteins were expressed in E. coli BL21(DE3) and first purified by Ni²⁺-NTA affinity chromatography Next, the thioredoxin-His₆-tag was removed by protease-3C digestion. The cleaved protein mixtures were further separated by a size-exclusion chromatography in a buffer containing 50 mM Tris (pH 7.5), 100 mM NaCl, 1 mM EDTA and 1 mM […] Native HRS and HRSΔCD mutants were created using the standard PCR-based mutagenesis method. The mutant proteins were purified using a protocol identical to that used for native HRS and HRSΔCD. Analytical gel filtration chromatography was carried out on an AKTA FPLC system (GE Healthcare). Proteins were loaded onto a Superose 12 10/300 GL column (GE Healthcare) equilibrated with a buffer containing 50 mM Tris (pH 7.5), 100 mM NaCl, […] EDTA and 1 mM […].
In general terms: Size exclusion chromatography separates by hydrodynamic size, large species first.

B1: human HRS variant with deletion of residues 1-53 and residues 507-509 (HRS Δ1-53-Δ507-509) (enzyme)
chain: FVLKTPKGTRDYSPRQMAVREKVFDVIIRCFKRHGAEVIDTPVFELKETLMGKYGEDSKLIYDLKDQGGELLSLRYDLTVPFARYLAMNKLTNIKRYHIAKVYRRDNPAMTRGRYREFYQCDFDIAGNFDPMIPDAECLKIMCEILSSLQIGDFLVKVNDRRILDGMFAICGVSDSKFRTICSSVDKLDKVSWEEVKNEMVGEKGLAPEVADRIGDYVQQHGGVSLVEQLLQDPKLSQNKQALEGLGDLKLLFEYLTLFGIDDKISFDLSLARGLDYYTGVIYEAVLLQTPAQAGEEPLGVGSVAAGGRYDGLVGMFDPKGRKVPCVGLSIGVERIFSIVEQRLEALEEKIRTTETQVLVASAQKKLLEERLKLVSELWDAGIKAELLYKKNPKLLNQLQYCEEAGIPLVAIIGEQELKDGVIKLRSVTSREEVDVRREDLVEEIKRRTGQPL
notes: the row under measurements tells of its self-association into a dimer in the crystal structure
Turning to B1, the binding result in data set [1] is reported as “binds”.

B2: human HRS variant with deletion of residues 507-509 (HRS Δ507-509) (enzyme)
chain: MAERAALEELVKLQGERVRGLKQQKASAELIEEEVAKLLKLKAQLGPDESKQKFVLKTPKGTRDYSPRQMAVREKVFDVIIRCFKRHGAEVIDTPVFELKETLMGKYGEDSKLIYDLKDQGGELLSLRYDLTVPFARYLAMNKLTNIKRYHIAKVYRRDNPAMTRGRYREFYQCDFDIAGNFDPMIPDAECLKIMCEILSSLQIGDFLVKVNDRRILDGMFAICGVSDSKFRTICSSVDKLDKVSWEEVKNEMVGEKGLAPEVADRIGDYVQQHGGVSLVEQLLQDPKLSQNKQALEGLGDLKLLFEYLTLFGIDDKISFDLSLARGLDYYTGVIYEAVLLQTPAQAGEEPLGVGSVAAGGRYDGLVGMFDPKGRKVPCVGLSIGVERIFSIVEQRLEALEEKIRTTETQVLVASAQKKLLEERLKLVSELWDAGIKAELLYKKNPKLLNQLQYCEEAGIPLVAIIGEQELKDGVIKLRSVTSREEVDVRREDLVEEIKRRTGQPL
notes: the row under measurements tells of its self-association into a dimer (size exclusion chromatography)
Turning to B2, the binding result in data set [2] is given as “binds”.
